# B1: scytovirin (other)
# chain: GSGPTYCWNEANNPGGPNRCSNNKQCDGARTCSSSGFCQGTSRKPDPGPKGPTYCWDEAKNPGGPNRCSNSKQCDGARTCSSSGFCQGTAGHAAA
# notes: Natural protein purified from an aqueous extract of cultured Scytonema varium; It has 95 residues, weighs 9,713 Da and has five intrachain disulfides (Cys20-Cys26, Cys32-Cys38, Cys68-Cys74, Cys80-Cys86, Cys7-Cys55); also called wild-type scytovirin; natural scytovirin
# Experiments:
# [1] = biological target: T1, sCD4 (UniProt P01730 26-394); test: ELISA, 100 ng target on plate, detected with anti-scytovirin rabbit polyclonal
# T1 construct: Printed only as sCD4 (soluble CD4)
# [2] = biological target: BSA (UniProt P02769 25-607); test: as above
# Chain of BSA (P02769 25-607 limits assumed): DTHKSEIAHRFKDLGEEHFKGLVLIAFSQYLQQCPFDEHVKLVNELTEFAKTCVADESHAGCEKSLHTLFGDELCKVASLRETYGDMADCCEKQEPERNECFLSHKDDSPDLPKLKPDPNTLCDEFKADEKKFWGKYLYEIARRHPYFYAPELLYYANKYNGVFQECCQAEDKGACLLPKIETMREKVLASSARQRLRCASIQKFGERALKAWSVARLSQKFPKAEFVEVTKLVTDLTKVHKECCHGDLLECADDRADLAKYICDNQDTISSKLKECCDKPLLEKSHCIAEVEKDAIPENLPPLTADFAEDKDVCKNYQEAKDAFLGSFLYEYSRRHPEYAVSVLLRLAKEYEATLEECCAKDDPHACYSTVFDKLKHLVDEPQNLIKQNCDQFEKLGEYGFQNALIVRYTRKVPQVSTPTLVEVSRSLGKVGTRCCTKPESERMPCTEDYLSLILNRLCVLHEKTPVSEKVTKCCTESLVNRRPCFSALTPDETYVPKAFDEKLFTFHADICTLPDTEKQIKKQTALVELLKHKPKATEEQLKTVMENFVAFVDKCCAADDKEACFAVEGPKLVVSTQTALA
# [3] = biological target: T2, human serum albumin (human, UniProt P02768 25-609); test: as above
# T2 construct: also called HSA; HAS
# T2 sequence (P02768 25-609 limits assumed): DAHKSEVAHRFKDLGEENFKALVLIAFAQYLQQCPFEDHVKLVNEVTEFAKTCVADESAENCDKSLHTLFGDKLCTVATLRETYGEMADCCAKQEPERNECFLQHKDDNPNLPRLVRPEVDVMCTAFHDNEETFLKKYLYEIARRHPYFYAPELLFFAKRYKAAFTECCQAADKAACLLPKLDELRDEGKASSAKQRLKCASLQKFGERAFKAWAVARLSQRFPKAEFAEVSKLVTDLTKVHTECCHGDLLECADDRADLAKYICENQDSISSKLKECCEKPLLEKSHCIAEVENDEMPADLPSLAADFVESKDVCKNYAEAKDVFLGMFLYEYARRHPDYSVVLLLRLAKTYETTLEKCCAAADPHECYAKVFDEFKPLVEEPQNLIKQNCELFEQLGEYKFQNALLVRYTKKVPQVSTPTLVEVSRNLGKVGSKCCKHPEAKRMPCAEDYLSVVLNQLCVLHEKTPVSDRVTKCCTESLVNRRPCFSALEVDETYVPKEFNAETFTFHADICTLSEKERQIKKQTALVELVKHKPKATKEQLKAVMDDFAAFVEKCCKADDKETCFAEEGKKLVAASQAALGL
# [4] = biological target: T3, glycosylated gp120 (HIV-1SF2 gp120) (HIV-1 SF2, UniProt P03378 32-509, limits assumed, glycosylated); test: ELISA, glycosylated and nonglycosylated HIV-1SF2 gp120 on plate, serial dilutions of scytovirin
# T3 construct: domain: gp120
binder,measurement,setting,value
B1,binding result,[1],no binding (tested: 100 ng of scytovirin)
same,binding result,[2],no binding (tested: 100 ng of scytovirin)
same,binding result,[3],no binding (tested: 100 ng of scytovirin)
same,binding result,[4],binds
